The record followed here is the supplement of paper PMC12042874.

± gives the uncertainty stated by the source.

This data set is described as follows: amyloid nucleation score (Sup35N fusion, yeast selection) (log enrichment); library NNK1; higher = more nucleation; inactive = no reads after selection. The gist of the method: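 The nucleation score is the log enrichment of output over input reads, calculated with DiMSum and centred on the mode score of non-aggregating sequences. Sequences with under 100 input reads were excluded. Reads came from Illumina sequencing of plasmid inserts from psi-negative yeast expressing Sup35N fused to peptides of 20 random codons, induced 24 hours with 100 μM copper sulfate and grown 7 days at 30°C without adenine and uracil.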
Substance SMLMFIQIV had an amyloid nucleation score of 1.96 ± 0.1.

In the case of VDSFRGHIESFPSLRTFIVS, the amyloid nucleation score entry is “inactive”.

WWYYNRRWLVTCKSVYGLGM gave an amyloid nucleation score of -0.34 ± 0.37.

On to FLYPVHLVLHCSTSYMQTDS, for which the amyloid nucleation score worked out at 0.241 ± 1.2.

Substance NGLCLDDIVRLFVIITSVGP showed an amyloid nucleation score of 0.821 ± 1.1.

In the case of GALFWVIPIMLLMRSGLLDP, the amyloid nucleation score was 0.498 ± 0.3.

IIFNYPNPIYLNAKEVMLYI returned an amyloid nucleation score of 6.52 ± 0.067.

Substance YSVQIMSKNITWVKVCPASK returned an amyloid nucleation score of 5.19 ± 0.071.

Consider FLRHLSSCCHLATLCVDWGA, for which the amyloid nucleation score is -0.103 ± 1.4.

FTCRFFVCFGLCGDHEHSPI: the amyloid nucleation score came to 7.561 ± 0.057.

The substance WLMAKGRYLSAFTVSFIRSY had an amyloid nucleation score of -1.28 ± 1.8.

As to FSACLSNIYD, the amyloid nucleation score entry is “inactive”.

Turning to RKPVVGSFIFTTFCKSYVDV, the amyloid nucleation score was found to be 2.9 ± 0.1.

Turning to TGSTR, the amyloid nucleation score was 0.391 ± 0.22.

KIGLNCFE: the amyloid nucleation score entry is “inactive”.

In turn, MRVWKSILFDRSFFVFGLWR registered an amyloid nucleation score of -0.543 ± 0.6.

TFIYSRECRRTSVWQPFNNR had an amyloid nucleation score of -0.704 ± 0.65.

For the substance CLSNM, the amyloid nucleation score entry was “inactive”.

IMTESCCG gave an amyloid nucleation score of 0.743 ± 0.54.

In turn, CVLCDGYFKSERLLNGWVM gave an amyloid nucleation score of -0.641 ± 0.52.

In the case of SEVQAPHIRCINIRALYLRN, the amyloid nucleation score was 2.08 ± 0.39.

Regarding LLVVSYFITSLSTCMFGYWK, the amyloid nucleation score was -0.411 ± 0.63.

With SCYVWDCENGSTLFIFVARR, the amyloid nucleation score entry is “inactive”.

In the case of GQLSCLSFNVVTGRYKAIAF, the amyloid nucleation score was 0.629 ± 0.38.

For APDDSRQCSETESSGFLTHW, the amyloid nucleation score is 0.366 ± 0.47.

ISLPLTPN came in with an amyloid nucleation score of -0.492 ± 0.36.

Substance TLDFMLIKLSERLHLRC came in with an amyloid nucleation score of 0.589 ± 0.3.

As for LGMWRCKPRTTLAWSYLDPV, the amyloid nucleation score was determined as 0.179 ± 0.71.

The substance TLMGQWGWFSSVAYNNAGIV registered an amyloid nucleation score of -1.36 ± 0.86.

NPGNTN displayed an amyloid nucleation score of 0.17 ± 0.55.

On to HYLVLYVIMYMFVQMSLPC, for which the amyloid nucleation score is 2.14 ± 0.49.

In turn, MSSVLFYYGFNTFEYSDMYM displayed an amyloid nucleation score of -0.15 ± 0.33.

Take HVTVNGWGAVSFLKNAKVVR: the amyloid nucleation score result was “inactive”.

Take FKIFD: the amyloid nucleation score was 1.15 ± 0.81.

Substance WSDYVDNPSVSARRSRQFRL had an amyloid nucleation score of -1.21 ± 1.6.

Regarding WSLPAVRRCHNELEYCNTRR, the amyloid nucleation score amounted to 0.107 ± 0.34.

In turn, AYPLKTFIFYHGLMIWFNAM showed an amyloid nucleation score of 0.827 ± 0.84.

Substance FYHKTFVYKEGLNGAALLGM returned an amyloid nucleation score of -0.023 ± 0.48.

Consider CANGLLRDLVQAI, for which the amyloid nucleation score stood at 0.547 ± 0.61.

TYILVFSVIYPSLKYECFCQ came in with an amyloid nucleation score of 1.6 ± 0.61.

Turning to IHVPNYVDRELELRASNSSR, the amyloid nucleation score was -0.298 ± 0.32.

For NSPKYLKLSCSTLLTALLGR, the amyloid nucleation score was found to be 1.16 ± 0.28.

As to FTLHYCLMDAFWGSSMDRGV, the amyloid nucleation score was found to be 0.275 ± 0.41.

The substance RDLDSSILNNFFDICTFWNK gave an amyloid nucleation score of -0.305 ± 0.5.

Substance LYSVRLRSVSK registered an amyloid nucleation score of -0.376 ± 0.25.

As to LLSIVPPDIFCQFSGHGRLT, the amyloid nucleation score was found to be 0.26 ± 0.62.

For the substance YVDDGMCSAICYSTVNNMSN, the amyloid nucleation score worked out at 8.666 ± 0.047.

Turning to LSSFMAAGVSLMCNTFLIWH, the amyloid nucleation score is 0.729 ± 0.51.

Substance VSQHSERQGAVCNRCFIVWR gave an amyloid nucleation score of 6.101 ± 0.057.

Consider YSMSRMIIKVKLQRHVMNYS, for which the amyloid nucleation score is -0.88 ± 0.73.

The substance TWQLNIYMEKFSGVEKSSTV gave an amyloid nucleation score of 7.841 ± 0.053.

The substance APAAIINFLDPHICARMAMF showed an amyloid nucleation score of -0.513 ± 1.3.

With GYIYLFGARFVVEEFGIVFW, the amyloid nucleation score was 0.678 ± 0.93.

LTCMLVRRFGNFIDDSYARA: the amyloid nucleation score is -1.2 ± 0.5.

TGLWNRIEVPVDKTEAKQPV showed an amyloid nucleation score of 0.076 ± 0.42.

Substance NYSYSFIPRSKVNGYEYGGA returned an amyloid nucleation score of -0.387 ± 0.32.

The substance IYLCCADFARIVMVTSTRWL came in with an amyloid nucleation score of 0.052 ± 0.5.

On to SKRMNGRNP, for which the amyloid nucleation score was 0.153 ± 0.47.

In the case of SNKIGVCSKLMISFPCIEYN, the amyloid nucleation score was -0.065 ± 1.1.

In turn, GSKSFPSSGSSMQAAGTSSG returned an amyloid nucleation score of -0.069 ± 0.36.

FYTCCMSYVVWIMHVRRLAG showed an amyloid nucleation score of 0.774 ± 0.56.

Take GTSMRFGGGVIF: the amyloid nucleation score is -0.721 ± 0.49.

TQHRRLVSRSQEFNVTQLKW registered an amyloid nucleation score of 2.3 ± 0.27.

LAVERGHCIQVRGLKCLIES yielded an amyloid nucleation score of 1.66 ± 0.47.

With AEAISSYHGWSYYLHHTPFS, the amyloid nucleation score was determined as 0.654 ± 1.2.

With TKWLLP, the amyloid nucleation score is 0.504 ± 0.57.

As to YLAQL, the amyloid nucleation score came to 0.558 ± 0.43.

Regarding GPRYRLLLWECCRHDLSLSC, the amyloid nucleation score was found to be 0.72 ± 0.43.

In turn, QTFMHSCEFRVN yielded an amyloid nucleation score of -0.347 ± 0.66.

The substance VSSGRRIGCVSPGSGEAREW came in with an amyloid nucleation score of 0.376 ± 0.61.

Regarding LRSGKAQYTEVVLLRIRPGF, the amyloid nucleation score is -1.4 ± 2.7.

As for CKKELFKT, the amyloid nucleation score is 0.77 ± 0.66.

For NQTSLAILSRSSQGHGTKVY, the amyloid nucleation score was 0.623 ± 0.95.

For the substance ATSALGCVTHVIMSNILTMN, the amyloid nucleation score was determined as 0.106 ± 0.34.

CTAWNVS displayed an amyloid nucleation score of -0.657 ± 1.7.

As for HEFYSVLMGHFVWLQPWETR, the amyloid nucleation score worked out at 0.839 ± 1.1.

Consider ILPKWAK, for which the amyloid nucleation score turned out to be 0.7 ± 0.97.

In turn, GSCVCECGWIFTARGVRVFK displayed an amyloid nucleation score of -0.346 ± 0.42.

ESHMRNHR: the amyloid nucleation score is 0.312 ± 0.37.

For the substance LSVQTWFGLSACYTGQAKYS, the amyloid nucleation score was 0.171 ± 1.2.

For the substance KSVFIYLGMISLVG, the amyloid nucleation score was found to be 0.352 ± 0.88.

With LLAIHAYREVLTGPGCGYLT, the amyloid nucleation score was 1.15 ± 0.66.

As to QVNFNRRFNTQAIFNLSGVP, the amyloid nucleation score amounted to 0.947 ± 0.71.

SDRKEA showed an amyloid nucleation score of -0.444 ± 0.69.

As for SILLWDLKANF, the amyloid nucleation score is 0.346 ± 0.29.

For the substance AMGRGLNWCPIGFVVSDMQR, the amyloid nucleation score turned out to be 1.39 ± 0.67.

The substance TRQYIEVSVNLCYIVVDKKN returned an amyloid nucleation score of -0.203 ± 0.39.

VMRNYFRDPDRPRLKWIYLS gave an amyloid nucleation score of 7.095 ± 0.048.

Regarding LKAELSNLKAHVLW, the amyloid nucleation score stood at 0.777 ± 0.54.

In turn, SPHTI displayed an amyloid nucleation score of 4.92 ± 0.097.

The substance QFRICVAPEFFGRKSLRASD had an amyloid nucleation score of 0.445 ± 1.2.

The substance MSGWG gave an amyloid nucleation score of 0.167 ± 0.27.

LAIDNDSWFVETNYNFKFDV: the amyloid nucleation score was -0.438 ± 0.57.

Regarding RFLGSWCSIYIGRCVMFDRG, the amyloid nucleation score is 1.13 ± 0.28.

Regarding TVNCGQSSMWDFWTGLTECG, the amyloid nucleation score is -0.22 ± 0.75.

The substance SLWNSYLETRV yielded an amyloid nucleation score of 1.14 ± 0.69.

Take AIMCKYLRKLVLMFFSR: the amyloid nucleation score was 0.811 ± 0.55.

FGHKKPVGLTGLNGFSGTGV returned an amyloid nucleation score of 1.91 ± 0.63.

For the substance EPVYISDWWTACEVADHVSL, the amyloid nucleation score entry is “inactive”.

Turning to VIHYCYSCFSADQAGLLFTR, the amyloid nucleation score came to 2.22 ± 0.14.

WHALVNRGHAWSRIGQDAGC came in with an amyloid nucleation score of -0.003 ± 0.79.

Substance DETQKPRVLCMLLLSKSTEN registered an amyloid nucleation score of 0.558 ± 0.34.

Regarding FLFLPVSVSYYEDDSGHVLC, the amyloid nucleation score entry is “inactive”.

In turn, RISTCIEILYDS yielded an amyloid nucleation score of -0.587 ± 0.37.

Substance YNCFMFAMFARSDSYMGIAS had an amyloid nucleation score of 0.597 ± 0.26.

With SCACYGWSVYSLGNANRVLS, the amyloid nucleation score amounted to 0.465 ± 0.69.

Regarding FVGFGWYCLDFFHFLNASLG, the amyloid nucleation score was -0.29 ± 1.4.

SACSESSVIWTNFH came in with an amyloid nucleation score of 0.292 ± 0.39.

ISEGVIRDMSNRVRGSMQEI gave an amyloid nucleation score of -0.175 ± 1.2.

On to GPWGQICSDTFYLLFVWVSW, for which the amyloid nucleation score stood at 0.133 ± 0.37.

Consider DGIRSWENSMVIYGI, for which the amyloid nucleation score is -0.091 ± 0.4.

In the case of YTFGWLLIKPHLRPAFKPHR, the amyloid nucleation score was -1.75 ± 2.7.

Regarding WWLFHVFLLKRQSITNAGVR, the amyloid nucleation score result was “inactive”.

Consider RQGLSAGSRYIK, for which the amyloid nucleation score is -0.311 ± 0.69.

For VNVGRKYGAVLGPGVNYGAK, the amyloid nucleation score was determined as 0.142 ± 0.29.

WCLESINFRRMCMASSG showed an amyloid nucleation score of 0.893 ± 0.41.

In turn, SYRSEGAMETLIDGRLSDLS displayed an amyloid nucleation score of 1.16 ± 0.76.

ALKHPML came in with an amyloid nucleation score of -0.815 ± 0.49.

WSCCAEERVTWGPAEMLLWG yielded an amyloid nucleation score of -1.05 ± 2.7.

As for CTDVNSQ, the amyloid nucleation score was 0.033 ± 0.9.

PRFKTMVVTHFLSFNFYGWN: the amyloid nucleation score was -0.505 ± 0.39.

Regarding LSNKLEYPMSPLISAVLFSA, the amyloid nucleation score result is “inactive”.

NMTVITVVSWLCFVRRTHNA registered an amyloid nucleation score of -1.06 ± 0.82.

In the case of IEDTGIYRSVTFTVAMTYTV, the amyloid nucleation score is -0.373 ± 0.38.

On to VWDSFSHVLVRLGIYLFFYV, for which the amyloid nucleation score worked out at 0.763 ± 0.42.

KPDSMFDFER returned an amyloid nucleation score of -0.675 ± 1.3.

SNFCDSDLYLFRNWPYYWHS: the amyloid nucleation score is -0.434 ± 0.26.

On to GKNWSFLTSYFCWFTLKIH, for which the amyloid nucleation score amounted to 1.4 ± 0.35.

LLVCSMHFISMTPVMPNSTA: the amyloid nucleation score worked out at 2.12 ± 0.24.

CNSVDVVLISATACYSWSTL: the amyloid nucleation score was determined as 0.552 ± 0.48.

Substance ESFLASMLRIGMCLPKQVMW displayed an amyloid nucleation score of -0.096 ± 0.66.

For LCEMLF, the amyloid nucleation score was -0.202 ± 0.61.

With PISCFTDHMQMFMRSNGRGL, the amyloid nucleation score was 1.16 ± 0.29.

VNRFCSVQVDS had an amyloid nucleation score of 0.074 ± 0.47.

For TCEESEDDGGIMAVPDWM, the amyloid nucleation score is -0.42 ± 0.57.

In the case of STCGCRPGLLFWARSPYN, the amyloid nucleation score was -0.367 ± 0.63.

Substance KRLDVKMVLPEVRFRLDVSL registered an amyloid nucleation score of 0.732 ± 0.27.

Regarding GNSWTSVVLHYFGSFSWGVT, the amyloid nucleation score result was “inactive”.
